Assay results as given in patent US20230263900A1, “DENDRIMER-DRUG CONJUGATE” (priority 2020, published 2023).

Experiment: Pharmacokinetic studies of RHa-5 and RHa-15, single IV or SC administration, compared with RDV
Assay type: in vivo, animals (mammals)
Settings: for C0, plasma GS-441524 / C0, plasma Remdesivir / F AUC(0-inf), plasma GS-441524 / F AUC(0-inf), plasma Remdesivir / F AUC(0-last), plasma GS-441524 / F AUC(0-last), plasma Remdesivir / Clast, plasma GS-441524 / Clast, plasma Remdesivir / t1/2last, plasma GS-441524 / t1/2last, plasma Remdesivir / tlast, plasma GS-441524 / tlast, plasma Remdesivir: 6.17 mg/kg Remdesivir equivalent; for F AUC(0-inf), plasma GS-441524 / F AUC(0-inf), plasma Remdesivir / F AUC(0-last), plasma GS-441524 / F AUC(0-last), plasma Remdesivir: relative to RDV IV
Protocol: Studies were undertaken to investigate the pharmacokinetic (PK) profile of two Remdesivir dendrimer conjugates following single intravenous (IV) or subcutaneous (SC) administration, and to compare them with that of Remdesivir (RDV).
The study consisted of two phases (PK Phase 1 and PK Phase 2) in a total of 6 animals (age 36-48 months) each part separated by a washout period: • PK Phase 1: Four animals (mammals) were studied. One male and one female were administered RHa-5 (BHALys [Lys]2[Lys]2[Lys]8[Lys]16[Lys]32[(α-NH-6N-TDA-Remdesivir)32(ε-NH-COPEG2000)32] 20% Remdesivir loading w/w) (test item) intravenously; and one male and one female were administered RHa-5 subcutaneously. Blood samples were taken over a period of 7 days. A minimum washout period of 14 days took place between the last blood sampling point of the PK Phase 1 and the start of PK Phase 2. • PK Phase 2: Six animals (mammals) were studied. One male and one female were administered RHa-15 (BHALys[Lys]2[Lys]4[Lys]8[Lys]16[Lys]32[(α-NH-3′ O-TDA-Remdesivir)32(ε-NH-COPEG2000)32] 18.63% Remdesivir loading w/w) (test item) intravenously; one male and one female were administered RHa-15 subcutaneously; and one male and one female were administered RDV (reference item). Blood samples were taken over a period of 7 days.
Formulation procedure: Test items RHa-5 and RHa-15 were reconstituted in Required volume of Water for injection (WFI), until a complete solution was obtained. The required volume of WFI was slowly added to RDV formulation (a lyophilate of 3.2% w/w RDV, 96.8% and sodium sulfobutylether-β-cyclodextrin adjusted to pH 3.5 with HCl) and shaken vigorously for 30 seconds. The solution was left for 20 minutes to ensure complete dissolution.
Administration: The clinical Remdesivir loading dose in humans is 200 mg. […] Allometric conversion of the dose from humans to small mammals results in an equivalent test dose of 6.17 mg/kg Remdesivir. Test item was administered as follows:
PK Phase 1: Two animal groups (A and B) of one male and one female each were administered test item RHa-5 at a Remdesivir equivalent dose of 6.17 mg/kg. Group A were administered the test item as a slow (30 seconds) intravenous bolus; and Group B were administered the test item over 30 seconds using the subcutaneous (SC) route into the back of the animal.
PK Phase 2: Three animal groups (C, D and E) of one male and one female each were included in this study phase. Groups C and D were administered test item RHa-15 at a Remdesivir equivalent dose of 6.17 mg/kg using the IV and SC routes, respectively. Group E were administered 6.17 mg/kg of RDV intravenously. IV administrations were done as a slow (30 seconds) bolus. SC administrations were done over 30 seconds.
Sampling schedule: Blood samples for PK analysis were collected as follows: • Day 1: pre-dose and at 15 min, 30 min, 1 h, 2 h, 4 h, 6 h, and 12 h after administration. • Days 2 to 8: 24, 48, 72, and 168 h after administration.
A blood volume of 2 mL was collected at each time point from the jugular vein with a 20-21G needle into a lithium heparin tube, and transferred into a tube containing 200 μL 0.15 M citric acid. Immediately following blood collection, the blood samples were mixed gently and kept on crushed ice until centrifugation at 1500 G for 10 min at 4° C. within 30 minutes of collection. Each plasma sample was stored frozen (˜80±10° C.).
The quantification range was 0.6 to 14400 ng/mL for Remdesivir and 0.6 to 14400 ng/mL for G441524.
Non-compartmental pharmacokinetic analysis was adopted to obtain the pharmacokinetic parameters from the blood concentration profiles.
The maximum concentration, Cmax, and time of maximum concentration, Tmax, were determined as the maximum measured concentration and its associated time. The area under the plasma concentration curve from 0 hours to the time of the last measurable concentration, AUC0-last, was calculated using linear trapezoidal estimation. […]

In the case of “BHALys[Lys]2[Lys]4[Lys]8[Lys]16[Lys]32[(α-NH-6N-TDA-Remdesivir)32(ε-NH-COPEG2000)32] [RHa-5]”, the “Release profile for plasma Remdesivir” value (IV and SC) is reported as “excellent sustained release profile”, the “C0, plasma GS-441524” value (IV, female (4F)) is reported as 2 ng/mL and the “C0, plasma Remdesivir” value (IV, female (4F)) is reported as 4648 ng/mL. The “F AUC(0-inf), plasma GS-441524” value (IV, female (4F)) was 0.8 x-fold, the “F AUC(0-inf), plasma Remdesivir” value (IV, female (4F)) was 605.7 x-fold and the “F AUC(0-last), plasma GS-441524” value (IV, female (4F)) was 0.8 x-fold. For the same substance, the “F AUC(0-last), plasma Remdesivir” value (IV, female (4F)) was 667.2 x-fold, the “Clast, plasma GS-441524” value (IV, female (4F; RDV 6F)) was 3.7 ng/mL and the “Clast, plasma Remdesivir” value (IV, female (4F; RDV 6F)) was 22.0 ng/mL. For the same substance, the “t1/2last, plasma GS-441524” value (IV, female (4F; RDV 6F)) was 39.6 h, the “t1/2last, plasma Remdesivir” value (IV, female (4F; RDV 6F)) was 19.2 h and the “tlast, plasma GS-441524” value (IV, female (4F; RDV 6F)) was 168 h. For the same substance, the “tlast, plasma Remdesivir” value (IV, female (4F; RDV 6F)) was 168 h, the “C0, plasma GS-441524” value (IV, male (1M)) was 2 ng/mL and the “C0, plasma Remdesivir” value (IV, male (1M)) was 5701 ng/mL. For the same substance, the “F AUC(0-inf), plasma GS-441524” value (IV, male (1M)) was 0.9 x-fold, the “F AUC(0-inf), plasma Remdesivir” value (IV, male (1M)) was 437.4 x-fold and the “F AUC(0-last), plasma GS-441524” value (IV, male (1M)) was 0.8 x-fold. The “F AUC(0-last), plasma Remdesivir” value (IV, male (1M)) was 438.1 x-fold, the “Clast, plasma GS-441524” value (IV, male (1M; RDV 3M)) was 3.1 ng/mL and the “Clast, plasma Remdesivir” value (IV, male (1M; RDV 3M)) was 98.7 ng/mL. The “t1/2last, plasma GS-441524” value (IV, male (1M; RDV 3M)) was 36.6 h, the “t1/2last, plasma Remdesivir” value (IV, male (1M; RDV 3M)) was 29.5 h and the “tlast, plasma GS-441524” value (IV, male (1M; RDV 3M)) was 168 h. The “tlast, plasma Remdesivir” value (IV, male (1M; RDV 3M)) was 168 h, the “C0, plasma GS-441524” value (IV, mean of male and female) was 2 ng/mL and the “C0, plasma Remdesivir” value (IV, mean of male and female) was 5175 ng/mL. For the same substance, the “Clast, plasma GS-441524” value (IV, mean of male and female) was 3 ng/mL, the “Clast, plasma Remdesivir” value (IV, mean of male and female) was 60 ng/mL and the “t1/2last, plasma GS-441524” value (IV, mean of male and female) was 38.1 h. The “t1/2last, plasma Remdesivir” value (IV, mean of male and female) was 24.3 h, the “tlast, plasma GS-441524” value (IV, mean of male and female) was 168 h and the “tlast, plasma Remdesivir” value (IV, mean of male and female) was 168 h. For the same substance, the “F AUC(0-inf), plasma GS-441524” value (IV, mean) was 0.8 x-fold, the “F AUC(0-inf), plasma Remdesivir” value (IV, mean) was 521.6 x-fold and the “F AUC(0-last), plasma GS-441524” value (IV, mean) was 1 x-fold. For the same substance, the “F AUC(0-last), plasma Remdesivir” value (IV, mean) was 553 x-fold, the “Clast, plasma GS-441524” value (SC, female (5F)) was 6.5 ng/mL and the “Clast, plasma Remdesivir” value (SC, female (5F)) was 21.1 ng/mL. The “tlast, plasma GS-441524” value (SC, female (5F)) was 168 h, the “tlast, plasma Remdesivir” value (SC, female (5F)) was 168 h and the “F AUC(0-last), plasma GS-441524” value (SC, female (5F)) was 0.7 x-fold. For the same substance, the “F AUC(0-last), plasma Remdesivir” value (SC, female (5F)) was 113.8 x-fold, the “Clast, plasma GS-441524” value (SC, male (2M)) was 8.8 ng/mL and the “Clast, plasma Remdesivir” value (SC, male (2M)) was 34.4 ng/mL. For the same substance, the “t1/2last, plasma GS-441524” value (SC, male (2M)) was 61.9 h, the “t1/2last, plasma Remdesivir” value (SC, male (2M)) was 28.9 h and the “tlast, plasma GS-441524” value (SC, male (2M)) was 168 h. For the same substance, the “tlast, plasma Remdesivir” value (SC, male (2M)) was 168 h, the “F AUC(0-inf), plasma GS-441524” value (SC, male (2M)) was 1.1 x-fold and the “F AUC(0-inf), plasma Remdesivir” value (SC, male (2M)) was 146.8 x-fold. The “F AUC(0-last), plasma GS-441524” value (SC, male (2M)) was 1.0 x-fold, the “F AUC(0-last), plasma Remdesivir” value (SC, male (2M)) was 146.9 x-fold and the “Clast, plasma GS-441524” value (SC, mean) was 7.7 ng/mL. The “Clast, plasma Remdesivir” value (SC, mean) was 28 ng/mL, the “t1/2last, plasma GS-441524” value (SC, mean) was 61.9 h and the “t1/2last, plasma Remdesivir” value (SC, mean) was 28.9 h. For the same substance, the “tlast, plasma GS-441524” value (SC, mean) was 168 h, the “tlast, plasma Remdesivir” value (SC, mean) was 168 h and the “F AUC(0-inf), plasma GS-441524” value (SC, mean) was 1.1 x-fold. The “F AUC(0-inf), plasma Remdesivir” value (SC, mean) was 147 x-fold, the “F AUC(0-last), plasma GS-441524” value (SC, mean) was 1 x-fold and the “F AUC(0-last), plasma Remdesivir” value (SC, mean) was 130 x-fold. The “Plasma Remdesivir t1/2 and AUC compared to RDV delivered IV” value (delivered IV or SC) was “substantially extended plasma Remdesivir t1/2 and increased AUC”.
